The values that follow come from IntAct's records for PubMed 19208808.

The labels stand for the following.
B1: ATP-dependent RNA helicase DDX19B (Homo sapiens), Q9UMR2-1 (parent)
chain: MATDSWALAVDEQEAAAESLSNLHLKEEKIKPDTNGAVVKTNANAEKTDEEEKEDRAAQSLLNKLIRSNLVDNTNQVEVLQRDPNSPLYSVKSFEELRLKPQLLQGVYAMGFNRPSKIQENALPLMLAEPPQNLIAQSQSGTGKTAAFVLAMLSQVEPANKYPQCLCLSPTYELALQTGKVIEQMGKFYPELKLAYAVRGNKLERGQKISEQIVIGTPGTVLDWCSKLKFIDPKKIKVFVLDEADVMIATQGHQDQSIRIQRMLPRNCQMLLFSATFEDSVWKFAQKVVPDPNVIKLKREEETLDTIKQYYVLCSSRDEKFQALCNLYGAITIAQAMIFCHTRKTASWLAAELSKEGHQVALLSGEMMVEQRAAVIERFREGKEKVLVTTNVCARGIDVEQVSVVINFDLPVDKDGNPDNETYLHRIGRTGRFGKRGLAVNMVDSKHSMNILNRIQEHFNKKIERLDTDDLDEIEKIAN

Variants of B1 are the subject of the assay. The note with it: with NUP214, P35658-1.
NUP214, P35658-1, sequence (P35658 whole entry): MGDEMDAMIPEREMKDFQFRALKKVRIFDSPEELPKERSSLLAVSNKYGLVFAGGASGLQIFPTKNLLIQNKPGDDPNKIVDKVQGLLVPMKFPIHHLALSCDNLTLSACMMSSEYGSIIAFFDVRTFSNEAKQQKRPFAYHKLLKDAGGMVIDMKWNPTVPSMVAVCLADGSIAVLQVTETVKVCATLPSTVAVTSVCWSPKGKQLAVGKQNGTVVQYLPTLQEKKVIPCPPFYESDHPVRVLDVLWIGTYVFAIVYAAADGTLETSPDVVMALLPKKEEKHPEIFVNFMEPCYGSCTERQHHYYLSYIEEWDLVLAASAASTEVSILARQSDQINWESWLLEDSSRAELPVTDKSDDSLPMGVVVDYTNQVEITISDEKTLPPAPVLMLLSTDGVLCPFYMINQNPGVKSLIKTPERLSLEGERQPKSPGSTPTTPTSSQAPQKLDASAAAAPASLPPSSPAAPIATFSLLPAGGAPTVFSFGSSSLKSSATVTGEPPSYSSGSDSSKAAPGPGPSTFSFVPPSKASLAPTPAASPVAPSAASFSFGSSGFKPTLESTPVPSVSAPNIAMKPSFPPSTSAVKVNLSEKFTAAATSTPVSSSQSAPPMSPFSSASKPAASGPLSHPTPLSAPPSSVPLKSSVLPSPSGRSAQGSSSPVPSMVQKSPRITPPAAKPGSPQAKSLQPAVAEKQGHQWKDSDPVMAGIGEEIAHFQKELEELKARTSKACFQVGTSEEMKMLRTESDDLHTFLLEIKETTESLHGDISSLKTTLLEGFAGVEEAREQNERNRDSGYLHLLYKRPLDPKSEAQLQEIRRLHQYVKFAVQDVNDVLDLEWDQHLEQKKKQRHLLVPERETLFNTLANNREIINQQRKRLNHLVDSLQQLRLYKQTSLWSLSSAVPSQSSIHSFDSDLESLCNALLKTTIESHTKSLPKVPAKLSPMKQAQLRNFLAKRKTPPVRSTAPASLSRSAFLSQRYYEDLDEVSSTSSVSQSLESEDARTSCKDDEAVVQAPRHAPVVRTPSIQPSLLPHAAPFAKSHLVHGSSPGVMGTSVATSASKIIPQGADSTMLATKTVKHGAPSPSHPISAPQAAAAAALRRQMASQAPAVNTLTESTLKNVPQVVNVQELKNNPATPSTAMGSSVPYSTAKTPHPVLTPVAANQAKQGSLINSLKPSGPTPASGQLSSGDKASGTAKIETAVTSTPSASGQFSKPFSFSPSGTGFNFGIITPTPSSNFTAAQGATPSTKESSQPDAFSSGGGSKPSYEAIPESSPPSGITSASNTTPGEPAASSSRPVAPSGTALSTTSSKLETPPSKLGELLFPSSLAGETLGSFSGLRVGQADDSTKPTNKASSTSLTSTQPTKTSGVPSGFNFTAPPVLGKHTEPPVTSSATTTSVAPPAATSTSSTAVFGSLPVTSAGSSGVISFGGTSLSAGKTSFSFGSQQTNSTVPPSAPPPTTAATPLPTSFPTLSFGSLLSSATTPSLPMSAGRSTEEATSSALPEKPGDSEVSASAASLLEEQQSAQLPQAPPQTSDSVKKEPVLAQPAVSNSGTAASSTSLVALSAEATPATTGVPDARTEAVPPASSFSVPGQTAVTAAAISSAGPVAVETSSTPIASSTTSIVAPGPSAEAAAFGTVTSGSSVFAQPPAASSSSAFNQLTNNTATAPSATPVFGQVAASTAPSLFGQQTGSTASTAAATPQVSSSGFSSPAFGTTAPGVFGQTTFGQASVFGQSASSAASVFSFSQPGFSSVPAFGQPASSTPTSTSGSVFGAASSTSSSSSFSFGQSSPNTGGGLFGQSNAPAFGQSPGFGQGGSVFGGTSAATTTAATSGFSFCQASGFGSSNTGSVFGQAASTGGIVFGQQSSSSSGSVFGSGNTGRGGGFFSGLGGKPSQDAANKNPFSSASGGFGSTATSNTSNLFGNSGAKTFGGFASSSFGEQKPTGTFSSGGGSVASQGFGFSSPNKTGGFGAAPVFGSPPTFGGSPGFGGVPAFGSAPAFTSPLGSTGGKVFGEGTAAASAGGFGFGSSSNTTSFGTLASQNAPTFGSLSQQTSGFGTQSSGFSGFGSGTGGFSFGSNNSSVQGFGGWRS
In the case of R259E, the “effect of a mutation on the interaction” value is “disrupting interaction strength”. Then R259A, with “disrupting interaction strength”. Take R259Q: the “effect of a mutation on the interaction” value was “decreasing interaction”.
